Our source for the protein production values is a protein production outcome set (Wang et al. 2014).

This series is described as follows: label from the status in PepcDB records.
For “MKIAVVGGTGLVGQGILLELSKDTTLELHSISRNGKRPNSIAGVNYHSFDLAHDTSWHSLLQTSDWVIDCVGILLPNKSKNQTYENSSIEPAKLIIDSIANFDNKFLFISANSAPFFLNNYLHAKRTVENYASRKLGNRAISVYPGLVYSKFRRSNYYPAVILDFLLKFKLFSFLRKFRPISRERFAKEIHYIIEGKNSSLTYRI”, the protein production result is “failed”.
“MLKKIREEFGCIFARDPAAQSFFEILTVYPGVHAVLIHRFSHWLWNHGLHWPARVLSYLARWATGIEIHPGATLGRRLFIDHGMGVVIGETAVIGDDCTLYHGVTLGGTSWQKGKRHPTLGNGVVVGAGAKVLGPITVGDGARIGSNSVVLRTVPAGATVVGIPGHIINPDRRAQEAQRLAIASRLGFDAYGMTPDMPDPVAHAINHMLDHIQALDQQVAKLKEVLRERGIDLEEAPLPDLDDCQLDPGEPQVTVNSSRTGLEHHHHHH”: the protein production result was “not failed”.
On to “MNINEKAIEMFEQNKYEEAMELFQQAVHKSRDVQSLNNLAWMYFYEEENDEKALELIREVVKLNPSSYFPYNILGEIYIKQKKWEEAKEVLQKSISIQPSDEAYHNVAVAHYNLGELEKASDFFLRVAGDSDYIMYSYVKCLIDLERTTEAKEKLDTFNRESDNFLGEINVADLYVELNCYKEAIEWFEKGYKECWKSPNWIGRFVYALYKTNNFSRINEVIRECIEAKTAEIEDVQNEEVEENWTENDKKELIEEYTEENNCYKTMVERIKSGYVPGLEFETDYIGACYLFGCKRHNHLEYEK”, for which the protein production entry is “failed”.
Next, “MSNVLTEIDSQYPYMTKNEKKIAKFILNSPQKVIKMRSQDLASLLDISTSSVIRFSKKITDGGFHDLKINISKYVPKASSIYNVELMNNESTESLRTKLHTRTTRALNHANNELN”: “not failed”; “MEKNDIFVVIPAYNEEKMIKNTLINLKSHGYENIIVVDDGSRDNTSKIAISEEVIVCKHIINRGLGGALKTGLKCAVKYNPKVIVTFDADGQHDPEDIFKVSEPILEDSFDVVVGSRLIDENELKNMPLIKKIGNWGLNFITYLMGGRMVTDSQGGLRAFSYDAAEIVSKQLKSNRYEVSSEFIVLFKKNNLKFKEVPIKTIYTEYSMARGTNVITGFKILFKLLIQKLILEHHHHHH”: “not failed”; “MNSELTFKQGLKDTMPTVFGYIGIGIAFGMIGHSEGFSVWVILLLSLIVYAGSAQFIMVSMLATHSPIMSIVLSVFLVNSRIILMSMTTASYFKNESLLKNILLGTLLTDESFALGMNKQNYTEGKLNFSWFNASNLLAYLVWALASAIGALLGNLLANPEKLGLGFAVIAMFIGLLYLQLISDKTLGLMLQLVMVGITLVLFYFGLIFLPSNLLVLFVTLIACALGVGVKRVFF”: “failed”.
Next, “MKAVTTSPSDPPDPFDPLDPVDPLASTKPEVDVVLPCLDEADALPWVLARIPPGWRALVVDNGSTDGSAEIARRLGATVVPETRRGFGAACHAGLTAATADIVCFCDCDGSLDPSLLVPFVREVRDGAADLVLGRRRPHGRGAWPAHARAGNLALARMLRRRTGLRLHDLGPLRAARREPLLALGLTDRRSGYPLQMVVRAADAGWRIAEHDVPYLPRTGVSKVTGTWRGTWQAVRDMSRVLAEPAQDGPPESGSLSSSQGGSSQLEHHHHHH”: “failed”; “MSDLEVQVPTAFDPFADANAEDSGAGTKEYVHIRVQQRNGRKSLTTVQGLKKEYSYSKILKDLKKEFCCNGTVVQDSELGQVIQLQGDQRKNVSTFLVQAGLVKKDNIKIHGF”: “failed”; “MKAYALVGGPTDLWLHDIKKQLTEAKQNNDLIFGVDRGALFLEELGIIPDVAIGDFDSLQAKDLSRIEKTVKDIRYSNPIKDWTDSEIMVQTVFKDYLADKLIILGASGGRIDHFLINLLMWLNPPINQFAQRVEIIDNHNSIVFFNPGVHIIKKKPDYPYIGFATLSETEDFNISGARYDLNDYSSTYPRVFSSNEFLPNSDYFEISLKKGMIAAIYSKDINRFHNLLEHHHHHH”: “not failed”.
Next, “MSALIDTWFLGCRAAATAVLYVLFAVVAGGAVSAARAATVAASAPAPVTVGSGKKAVRQGISLELLVKPTHAEDGFSAAVVEGAYADVSLKMTDAATGHPVTVMQPRVWIDLRKGTGDFREKQMACSDKVRTYLQGTLSFRPDIDLNSYFVLTLNNDASISVIDPIIGVAGYSQLYAMILLKRPGEDWVFSFDGKRLYVTMPKAGEVAEIDTDSLAVVRNIPAGAMPVRMAFQPDSRYLWVGNDSSDPARSGVTVIDPFSGTQAAFIQTGAGHHEIAFADDSRYAFVTNQQSGTLTIIDIQSLAPVKTLRLGDGPVSVAYSALSKCAHVVCEGDGNLLVVDGLSHEIISRKTFEPGFREVRFAPGDRWYFTVNGKNGQILVFDAAGNELLHSTVVAGRPEHVSFSTEFAYIRSLGTADVTLIPLAALGKAAILTPLVVSGGSRPPADSPLLPPTADPIVVTPEGNSVLIASPSDGAVVYYMEGMGVPMGSFKTYGRLPRAVNVINRQLRQNVPGVFSSRVKIPLAGTYDVAVLLDSPRIVQCFEFSADANPALQRLKTERPVMVEFVGSALRVEAGRESVVRFRVTDPVTHEPVADLRDLIVVTSLVPTGAWRQQLVSRPVGNGIYEVTFTARKVGIYSFNFAIPSLKVKLYQLAGMMIHAVETPAEAGSDVPAGQKKD”: “failed”; “LPKPGVYYFPWEVSDGHVPEGSTLRTFGRLYLYDMARSLMTLAAPQKPDQCQLLVCTNLVEPFEAHVNFLYMVLGDLERMEGGAFVVRARLLTCVEGMDLSLLEKAILEQRRHLQKRQQPIGDASTLQTPTPAPQSIPSDSLSLEPENRG”: “failed”.
As to “QSTGQVTLGVLTDMSSVYADSAGKGSVAAVQLAIEDVGGKALGQPVKLVSADYQMKTDVALSIAREWFDRDGVDAIFDVVNSGTALAINNLVKDKKKLAFITAAAADQIGGTECNGYGIGFLYNFTSIVKTVVQAQLAKGYKTWFLMLPDAAYGDLMNAAIRRELTAGGGQIVGSVRFPFETQDFSSYLLQAKASGAQLIVSTSGGAANINIMKQAREFGLPSKTQKVGGMIDILTDVKSAGLRVMQGQEYATSFYWNMDDRTRAFAKRFYAKMGKMPTNNQAGGYSAALQYLKAVNAIGSKDPQKVFAYLKTIKFDDAVTRHGTLRPGGRLVRDMYLVRAKKPEDQKGDWDYYDVVATIGPEQAFGPLSESRCAMDK”, the protein production result is recorded as “not failed”.
As for “MNIGRHLLLVLFGWLPVRLGFAADAISVVDKQPVNWVAITMFAVFVLITLWITQWAAKKTRSSADFYTAGGTVTGFQNGLAIAGDYVSAASFLGITSAVMANGYDGMLYAIGFLVGWPILTFLIAERLRNLGKYTFADVVAYRFAATSVRLFASVSTLVVVLCYLIAQMVGAGALIRLLFGLDYWVAMVLVGGLMMVYVLFGGMAATTWVQIIKAVLLLIGATFMAVMIMRRFGFNFEGLFASAVEVKTQIAMAGGKSGEEAKALGLSIMAPGSFIKDPISAISLGIALVFGTAGLPHILMRFFTVPDARQARHSVLWAITWIGYCYILMFIIGFGAIVLVLANPQYADIASGTIRGGQGAANMAAVLVAKVVGGNVFMGFVSAVAFATILAVVAGLALSGASAVSHDVYAMVIKQGKPSSDTELLVSRVTTAVLGVVAVLLGIVFQKQNVAFMVSLAFAIAASANFPVLVLSLFWKNCTTRGAVIGGFLGLISSLVLTVLSPSVWVDTLGHSVDSVRFPYTSPALFSMTIGFVGIWLFSVLDRSGRAAKERVAFKAQQVRAETGLGASKMSPN”, the entry is “failed”; as for “MDTAASPLTYRDATDADVDALVALIESAYRGDASRAGWTTEADILQGQRTDPQGVLEVVKAPDSRLLTVERDGRIVACCQLEHRGAHAYFGMFAVSPALQGAGLGKAIIAEAERQARTTWGVTEMHMTVISVRDDLIAWYERRGYRRTGETTPFPYGDERFGIPQRADLRFELLVKPLV”, “failed”.
As to “MKKGFSALVEHNGYRVLVDTGTDGKILLNNMEGLGIDPNSIDALFLTHGHYDHTGGIAELLKARKDTLDVYAHPRIFEKRIALKPKRRDIGIPFSQEELESLGAIFHLNDKALEFLPGLISSGEIKRETWDRAVGYLLNNEKDPVRDDMALLIDLGDKIAVITGCGHSGILNIAKHAVEISKKPIRALIGGFHLRGASITILEDAVRGLKELNVEMLYPGHCTGIDEYAYLRMKLKAEHLNVGKEIVIK”, the protein production result is listed as “failed”.
Next, “MAPPAQKGNLRKRSGKTSTAVNSAINENVRKLVRSLSEPGTSQKKLRQMEDTALKIIANQRRTWAPTTTDMEVKRNLDDLAERFRAEGMASFGESIKDLAIRYLAMDENQQQFNPNPGWQMLELLFRIADRPVQKIRLNREFMEQRRLSIINSMEEAERQAQIEEQAKLEAAKNTSETEVDWAALLSEDFLDPPEDDSSDSLSDWSEESDCDSTTTLKPDENIGVSRSLLEMARVYEQAMMAVVPTGSVNKTYMPPEQSVIRSYDFRIMKPTVLSLNNLKGSHLRRSKLLQLPPPQPPRPFTQYWQSGNTDTLFRKIHSHWWCQDVHLNALPSSAKPLDNFAVSYVQFLNHNARGLLALPVPKTITEPCLLREILFMFVRPASCCFFEFDKATRRITVRDNVSICTVTASTMQNFLLFNVVPALEDMMELRHIIDTHTLHFHGVKTTYTVEFFAYGLRDLVQPICQLLIAYEDRVNKDPAKNTLIRFTIEFREHFSQLRLLRELAEDVILDKGPAHIRSAYLLSRLYKHTLLQVPHQKLATALLFISLKRYCIIIDGWWRRAALEDHLREFIVEFCYEEDANTRSHVRKRNMGMEDDLLLVEIFNKLQSCPLYQLLLEHALESGETQDLLCSVNTLSEMLTSNNEIQLPSLHDELFTQFFAQLKVYCGADNTDYEDEPEPDKDYEDLTVCNRQGIRNHELFAIFTQPLVEQRLERQRERLKSNPVLMANILKRLERSTCLQLKSELPEALREILRRRQWLANEYAIRAYCKETQVAEKMRFLRHTMLLEKYYLFVPYYNALFVRMEKNNSWALGSVLTSKLCAVLLPHYPQLAHYLHVKLISQINSNSIKVYEALEAIELDFERPMAMHQWYILTPAHMQDYNSVWRLMLKVKWAVWKLENMQFLRRARFNPCAPLDLIGLTIRRLEIVRFWLIFLINNLHAHIMEAVSRQFELRIGECKNVRELRIMHDEHLAWLKTHCMLTDEFKAFRVALDQIFHLVYVLDMEWTTCASCMHDHDALCLDFTISDDGIDDSETQRRSLEYLALNQVAEIELTYIRCHQMLADILNTLVHQNDHGFLSALEETINSSVPH”: “failed”; “MPNTTAKKDYTKYSEKQLFNLIHQLERKIKKMQNDRISFKEKMAKELEKRDQNFKDKIDALNELLQKISQAFDDKRDCCLGHEIPNIETQQAMRDALNGINLTQIDSLDDFTNELKRENSKGFENVCFSV”: “failed”; “DRIYLVAPEDIYLVSVEERQLSIFVDQQVYKMTGTLNSIEQKLPATLFIKTHRSFILNRTKIQEIQPWFNNTLQVILTNGSKVPVSRSYVKEFKEKLGLS”: “failed”.
Next, “MIFLSTVLILCCTWYFLKFLAHFSRKIHDEVRKLSVYTHFLSKWLQSAPATFTYTAIFCAFTLVQRTAPQHLINILTNHSSTSIARVSDKPISTFFDSAFWVADNGAGLLIYVVLFWTVIAWAERKYGSPRMIVITLSGHILASLTTIFLELWAINSGRAPSSLAMATDVGVSYILVAGCAAAILIMRKRMFYIGLIILGLFILLPLFVEHSIWDMGHLFAAFFGFISARLLLKLSPVRTVSSPYELLLKCRSELSNK”: “failed”; “MTNVGRPIETHAITVGQGSDARSIAALVRAPAQDERPTCIWLGGYRSDMTGTKALEMDDLAASLGVGAIRFDYSGHGASGGAFRDGTISRWLEEALAVLDHFKPEKAILVGSSMGGWIALRLIQELKARHDNPTQVSGMVLIAPAPDFTSDLIEPLLGDRERAELAENGYFEEVSEYSPEPNIFTRALMEDGRANRVMAGMIDTGCPVHILQGMADPDVPYQHALKLVEHLPADDVVLTLVRDGDHRLSRPQDIDRMRNAIRAMIEPRP”: “not failed”; “MRQPFQVLVIPFIKTEANYQFGVLHRTDADVWQFVAGGGEDEEAISETAKRESIEELNLDVDVKMYSLDSHASIPNFHFSFNKPYVVPEYCFAIDLTSCSYQVTLSLEHSELRWVSYESAIQLLEWDSNKTALYELNERLKNNDMKAM”: “not failed”.
